These results are taken from patent US20260285964 (published 2026).

For one assay, the target named is T1, rat IL-36R (rat, UniProt Q62929).
T1 chain: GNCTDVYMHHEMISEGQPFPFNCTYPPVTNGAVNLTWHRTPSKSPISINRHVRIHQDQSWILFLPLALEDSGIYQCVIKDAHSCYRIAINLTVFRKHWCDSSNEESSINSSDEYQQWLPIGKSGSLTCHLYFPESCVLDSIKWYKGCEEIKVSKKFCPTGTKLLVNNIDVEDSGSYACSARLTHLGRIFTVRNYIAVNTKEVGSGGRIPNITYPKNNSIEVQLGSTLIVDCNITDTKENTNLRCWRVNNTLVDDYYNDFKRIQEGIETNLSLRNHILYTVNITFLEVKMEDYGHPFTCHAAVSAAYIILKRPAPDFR

In a further assay the target is T2, mouse IL-36R (IL-1Rrp2) (mouse, UniProt Q9ERS7).
T2 chain: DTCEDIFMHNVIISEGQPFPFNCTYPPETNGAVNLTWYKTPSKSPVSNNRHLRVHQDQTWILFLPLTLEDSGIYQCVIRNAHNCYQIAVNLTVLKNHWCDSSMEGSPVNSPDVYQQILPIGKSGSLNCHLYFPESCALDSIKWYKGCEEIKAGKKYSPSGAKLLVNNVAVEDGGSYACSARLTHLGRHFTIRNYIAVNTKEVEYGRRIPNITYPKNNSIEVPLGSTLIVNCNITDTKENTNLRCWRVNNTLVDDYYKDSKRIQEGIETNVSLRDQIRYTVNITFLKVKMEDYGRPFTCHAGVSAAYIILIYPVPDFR

B1: HB0034 (antibody, V domains shown)
VH: QVQLVQSGAEVKKPGASVKVSCKASGYTFTSSWMHWAKQAPGQGLEWIGEIHPNSAKTNYNQKFQGRVTMTRDTSISTAYMELSRLRSDDTAVYYCARVDYGKPWFAYWGQGTLVTVSS
VL: QIVLTQSPGTLSLSPGERATLSCRASSSVSSSYLHWYQQKPGQAPRLWIYSTSSRATGIPDRFSGSGSGTDFTLTISRLEPEDFATYYCQQFQSSPLTFGQGTKLEIK
As to B1, the binding result in the assay with rat IL-36R and with mouse IL-36R (IL-1Rrp2) was “no binding” throughout.
